According to patent US20260015399A1 (Boehringer Ingelheim, published 2026):
*1 amine or outer side, *2 acyl side, *3 side chain or, on linkers, in order; H or OH if unused. Side-chain parts run from the residue outwards. The star is where a group is joined. C18 diacid = O=C(O)CCCCCCCCCCCCCCCCC(=O)*; γGlu = O=C(O)[C@H](CCC(=O)[*:2])N[*:1]; Isovaleryl = CC(C)CC(=O)*; Ahx = NCCCCCC(=O)O

B1: Compound 127 (peptide)
peptide: Isovaleryl-APEK([Ahx-γGlu-C18 diacid])PEAAAEPEELQRYYVALRHYYNWLTRQRY-NH2
SMILES: CC(C)CC(=O)N[C@@H](C)C(=O)N1CCC[C@H]1C(=O)N[C@@H](CCC(=O)O)C(=O)N[C@@H](CCCCNC(=O)CCCCCNC(=O)CC[C@H](NC(=O)CCCCCCCCCCCCCCCCC(=O)O)C(=O)O)C(=O)N1CCC[C@H]1C(=O)N[C@@H](CCC(=O)O)C(=O)N[C@@H](C)C(=O)N[C@@H](C)C(=O)N[C@@H](C)C(=O)N[C@@H](CCC(=O)O)C(=O)N1CCC[C@H]1C(=O)N[C@@H](CCC(=O)O)C(=O)N[C@@H](CCC(=O)O)C(=O)N[C@@H](CC(C)C)C(=O)N[C@@H](CCC(N)=O)C(=O)N[C@@H](CCCNC(=N)N)C(=O)N[C@@H](Cc1ccc(O)cc1)C(=O)N[C@@H](Cc1ccc(O)cc1)C(=O)N[C@H](C(=O)N[C@@H](C)C(=O)N[C@@H](CC(C)C)C(=O)N[C@@H](CCCNC(=N)N)C(=O)N[C@@H](Cc1c[nH]cn1)C(=O)N[C@@H](Cc1ccc(O)cc1)C(=O)N[C@@H](Cc1ccc(O)cc1)C(=O)N[C@@H](CC(N)=O)C(=O)N[C@@H](Cc1c[nH]c2ccccc12)C(=O)N[C@@H](CC(C)C)C(=O)N[C@H](C(=O)N[C@@H](CCCNC(=N)N)C(=O)N[C@@H](CCC(N)=O)C(=O)N[C@@H](CCCNC(=N)N)C(=O)N[C@@H](Cc1ccc(O)cc1)C(N)=O)[C@@H](C)O)C(C)C
B2: Compound 132 (peptide)
peptide: Isovaleryl-APEK([Ahx-γGlu-C18 diacid])PEADATPEELQRYYVSLRHYYNWLTRQRY-NH2
SMILES: CC(C)CC(=O)N[C@@H](C)C(=O)N1CCC[C@H]1C(=O)N[C@@H](CCC(=O)O)C(=O)N[C@@H](CCCCNC(=O)CCCCCNC(=O)CC[C@H](NC(=O)CCCCCCCCCCCCCCCCC(=O)O)C(=O)O)C(=O)N1CCC[C@H]1C(=O)N[C@@H](CCC(=O)O)C(=O)N[C@@H](C)C(=O)N[C@@H](CC(=O)O)C(=O)N[C@@H](C)C(=O)N[C@H](C(=O)N1CCC[C@H]1C(=O)N[C@@H](CCC(=O)O)C(=O)N[C@@H](CCC(=O)O)C(=O)N[C@@H](CC(C)C)C(=O)N[C@@H](CCC(N)=O)C(=O)N[C@@H](CCCNC(=N)N)C(=O)N[C@@H](Cc1ccc(O)cc1)C(=O)N[C@@H](Cc1ccc(O)cc1)C(=O)N[C@H](C(=O)N[C@@H](CO)C(=O)N[C@@H](CC(C)C)C(=O)N[C@@H](CCCNC(=N)N)C(=O)N[C@@H](Cc1c[nH]cn1)C(=O)N[C@@H](Cc1ccc(O)cc1)C(=O)N[C@@H](Cc1ccc(O)cc1)C(=O)N[C@@H](CC(N)=O)C(=O)N[C@@H](Cc1c[nH]c2ccccc12)C(=O)N[C@@H](CC(C)C)C(=O)N[C@H](C(=O)N[C@@H](CCCNC(=N)N)C(=O)N[C@@H](CCC(N)=O)C(=O)N[C@@H](CCCNC(=N)N)C(=O)N[C@@H](Cc1ccc(O)cc1)C(N)=O)[C@@H](C)O)C(C)C)[C@@H](C)O
B3: Compound 133 (peptide)
peptide: Isovaleryl-APAK([Ahx-γGlu-C18 diacid])PEEDAEPEELQRYYVSLRHYYNWLTRQRY-NH2
SMILES: CC(C)CC(=O)N[C@@H](C)C(=O)N1CCC[C@H]1C(=O)N[C@@H](C)C(=O)N[C@@H](CCCCNC(=O)CCCCCNC(=O)CC[C@H](NC(=O)CCCCCCCCCCCCCCCCC(=O)O)C(=O)O)C(=O)N1CCC[C@H]1C(=O)N[C@@H](CCC(=O)O)C(=O)N[C@@H](CCC(=O)O)C(=O)N[C@@H](CC(=O)O)C(=O)N[C@@H](C)C(=O)N[C@@H](CCC(=O)O)C(=O)N1CCC[C@H]1C(=O)N[C@@H](CCC(=O)O)C(=O)N[C@@H](CCC(=O)O)C(=O)N[C@@H](CC(C)C)C(=O)N[C@@H](CCC(N)=O)C(=O)N[C@@H](CCCNC(=N)N)C(=O)N[C@@H](Cc1ccc(O)cc1)C(=O)N[C@@H](Cc1ccc(O)cc1)C(=O)N[C@H](C(=O)N[C@@H](CO)C(=O)N[C@@H](CC(C)C)C(=O)N[C@@H](CCCNC(=N)N)C(=O)N[C@@H](Cc1c[nH]cn1)C(=O)N[C@@H](Cc1ccc(O)cc1)C(=O)N[C@@H](Cc1ccc(O)cc1)C(=O)N[C@@H](CC(N)=O)C(=O)N[C@@H](Cc1c[nH]c2ccccc12)C(=O)N[C@@H](CC(C)C)C(=O)N[C@H](C(=O)N[C@@H](CCCNC(=N)N)C(=O)N[C@@H](CCC(N)=O)C(=O)N[C@@H](CCCNC(=N)N)C(=O)N[C@@H](Cc1ccc(O)cc1)C(N)=O)[C@@H](C)O)C(C)C
B4: Compound 130 (peptide)
peptide: Isovaleryl-APEK([Ahx-γGlu-C18 diacid])PEEDATPEELQLYYVSLRHYYNWLTRQRY-NH2
SMILES: CC(C)CC(=O)N[C@@H](C)C(=O)N1CCC[C@H]1C(=O)N[C@@H](CCC(=O)O)C(=O)N[C@@H](CCCCNC(=O)CCCCCNC(=O)CC[C@H](NC(=O)CCCCCCCCCCCCCCCCC(=O)O)C(=O)O)C(=O)N1CCC[C@H]1C(=O)N[C@@H](CCC(=O)O)C(=O)N[C@@H](CCC(=O)O)C(=O)N[C@@H](CC(=O)O)C(=O)N[C@@H](C)C(=O)N[C@H](C(=O)N1CCC[C@H]1C(=O)N[C@@H](CCC(=O)O)C(=O)N[C@@H](CCC(=O)O)C(=O)N[C@@H](CC(C)C)C(=O)N[C@@H](CCC(N)=O)C(=O)N[C@@H](CC(C)C)C(=O)N[C@@H](Cc1ccc(O)cc1)C(=O)N[C@@H](Cc1ccc(O)cc1)C(=O)N[C@H](C(=O)N[C@@H](CO)C(=O)N[C@@H](CC(C)C)C(=O)N[C@@H](CCCNC(=N)N)C(=O)N[C@@H](Cc1c[nH]cn1)C(=O)N[C@@H](Cc1ccc(O)cc1)C(=O)N[C@@H](Cc1ccc(O)cc1)C(=O)N[C@@H](CC(N)=O)C(=O)N[C@@H](Cc1c[nH]c2ccccc12)C(=O)N[C@@H](CC(C)C)C(=O)N[C@H](C(=O)N[C@@H](CCCNC(=N)N)C(=O)N[C@@H](CCC(N)=O)C(=O)N[C@@H](CCCNC(=N)N)C(=O)N[C@@H](Cc1ccc(O)cc1)C(N)=O)[C@@H](C)O)C(C)C)[C@@H](C)O
B5: Compound 131 (peptide)
peptide: Isovaleryl-APEK([Ahx-γGlu-C18 diacid])PEADAEPEEIQRYYVALRHYYNWLTRQRY-NH2
SMILES: CC[C@H](C)[C@H](NC(=O)[C@H](CCC(=O)O)NC(=O)[C@H](CCC(=O)O)NC(=O)[C@@H]1CCCN1C(=O)[C@H](CCC(=O)O)NC(=O)[C@H](C)NC(=O)[C@H](CC(=O)O)NC(=O)[C@H](C)NC(=O)[C@H](CCC(=O)O)NC(=O)[C@@H]1CCCN1C(=O)[C@H](CCCCNC(=O)CCCCCNC(=O)CC[C@H](NC(=O)CCCCCCCCCCCCCCCCC(=O)O)C(=O)O)NC(=O)[C@H](CCC(=O)O)NC(=O)[C@@H]1CCCN1C(=O)[C@H](C)NC(=O)CC(C)C)C(=O)N[C@@H](CCC(N)=O)C(=O)N[C@@H](CCCNC(=N)N)C(=O)N[C@@H](Cc1ccc(O)cc1)C(=O)N[C@@H](Cc1ccc(O)cc1)C(=O)N[C@H](C(=O)N[C@@H](C)C(=O)N[C@@H](CC(C)C)C(=O)N[C@@H](CCCNC(=N)N)C(=O)N[C@@H](Cc1c[nH]cn1)C(=O)N[C@@H](Cc1ccc(O)cc1)C(=O)N[C@@H](Cc1ccc(O)cc1)C(=O)N[C@@H](CC(N)=O)C(=O)N[C@@H](Cc1c[nH]c2ccccc12)C(=O)N[C@@H](CC(C)C)C(=O)N[C@H](C(=O)N[C@@H](CCCNC(=N)N)C(=O)N[C@@H](CCC(N)=O)C(=O)N[C@@H](CCCNC(=N)N)C(=O)N[C@@H](Cc1ccc(O)cc1)C(N)=O)[C@@H](C)O)C(C)C

target: T1, human NPY2 receptor (human, UniProt P49146 1-381); experiment: RLB: displacement of 125I-PYY(1-36) from hNPY2R membranes
T1 construct: whole, on cells; also called hNPY2-R; hNPY2R
T1 sequence (looked up): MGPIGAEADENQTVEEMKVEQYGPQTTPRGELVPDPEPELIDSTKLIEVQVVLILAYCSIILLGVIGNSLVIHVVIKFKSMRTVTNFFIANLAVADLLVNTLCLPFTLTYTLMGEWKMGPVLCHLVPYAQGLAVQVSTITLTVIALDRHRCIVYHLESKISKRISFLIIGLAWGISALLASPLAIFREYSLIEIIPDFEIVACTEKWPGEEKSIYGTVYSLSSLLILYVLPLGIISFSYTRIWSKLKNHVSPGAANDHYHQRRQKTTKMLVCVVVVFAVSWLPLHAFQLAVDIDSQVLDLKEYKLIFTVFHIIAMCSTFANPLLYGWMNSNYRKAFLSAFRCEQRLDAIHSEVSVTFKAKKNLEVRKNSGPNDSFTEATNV

B1 and B2 are within 1.5-fold of each other in Ki: 3.36 nM for the first, 2.75 nM for the second.

Going from B3 to B4, the Ki rises from 4.68 nM to 9.36 nM (2-fold). The first binds more tightly here.

Binder B5 has a Ki of 1.54 nM.
